Test results from patent publication US11994512B2, “Single-cell genomic methods to generate ex vivo cell systems that recapitulate in vivo biology with improved fidelity” (Massachusetts Institute of Technology, priority 2018, dated 2024).

B1: O70126 (protein, UniProt O70126 1-345, looked up)
chain: MAQKENAYPWPYGSKTSQSGLNTLSQRVLRKEPATTSALALVNRFNSQSTAAPGQKLAENKSQGSTASQGSQNKQPFTIDNFEIGRPLGKGKFGNVYLAREKKSRFIVALKILFKSQIEKEGVEHQLRREIEIQAHLKHPNILQLYNYFYDQQRIYLILEYAPRGELYKELQKSRTFDEQRTATIMEELSDALTYCHKKKVIHRDIKPENLLLGLQGELKIADFGWSVHAPSLRRKTMCGTLDYLPPEMIEGRMHNEMVDLWCIGVLCYELMVGNPPFESPSHSETYRRIVKVDLKFPSSVPSGAQDLISKLLKHNPWQRLPLAEVAAHPWVRANSRRVLPPSAL
modifications: full-length
B2: O35594 (protein, UniProt O35594 1-676, looked up)
chain: MSDQIKFIVDSLNKEPFKKNYNLITFDSLGPMQLLQVLNDVLAEIDPKQDVDIREEMPEQTAKRMLNLLGILKYKPPGNATDMSTFRQGLVIGSKPVIYPVLHWLLQRSNELKKRAYLARFLIKLEVPSEFLQDETVADTNKQYEELMEAFKTLHKECEQLKTSGFSTAEIRRDISAMEEEKDQLMKRVERLKKRVETVQNHQRMLKIARQLRVEKEREEFLAQQKQEQKNQLFHAVQRLQRVQNQLKSMRHAAADAKPESLMKRLEEEIKFNSYMVTEKFPKELESKKKELHFLQKVVSEPAMGHSDLLELETKVNEVNTEINQLIEKKMMRNEPIEGKLSLYRQQASIISRKKEAKAEELQETKEKLASLEREVLVKTNQTREFDGTEVLKGDEFKRYVSKLRSKSTVFKKKHQIIAEFKAEFGLLQRTEELLKQRQETIQHQLRTIEEKKGISGYSYTQEELERVSALKSEVDEMKGRTLDDMSEMVKKLNSLVSEKKSALAPVIKELRQLRQKCQELTQECDEKKAQYDSCAAGLESNRSKLEQEVRGLREECLQEESKYHYTNCMIKNLEVELRRATDEMKAYVSSDQQEKRKAIREQYTKNITEQENLGKKLREKQKAVRESHGPNMKQAKMWRDLEQLMECKKQCFLKQQSPASIGQVIQEGGEDRLVL
modifications: full-length
B3: O35943 (protein, UniProt O35943 1-207, looked up)
chain: MWAFGGRAAVGLLPRTASRASAWVGNPRWREPIVTCGRRGLHVTVNAGATRHAHLNLHYLQILNIKKQSVCVVHLRNLGTLDNPSSLDETAYERLAEETLDSLAEFFEDLADKPYTLEDYDVSFGDGVLTIKLGGDLGTYVINKQTPNKQIWLSSPSSGPKRYDWTGKNWVYSHDGVSLHELLARELTKALNTKLDLSSLAYSGKGT
modifications: full-length
B4: O35945 (protein, UniProt O35945 1-501, looked up)
chain: MSSPAQPAVPAPLANLKIQHTKIFINNEWHDSVSSKKFPVLNPATEEVICHVEEGDKADVDKAVKAARQAFQIGSPWRTMDASERGRLLNKLADLMERDRLLLATMESMNAGKVFAHAYLLDVEISIKALQYFAGWADKIHGQTIPSDGNIFTYTRREPIGVCGQIIPWNGPLIIFTWKLGPALSCGNTVVVKPAEQTPLTALHMASLIKEAGFPPGVVNIVPGYGPTAGGAISSHMDIDKVSFTGSTEVGKLIKEAAGKSNLKRVTLELGGKSPCIVFADADLDSAVEFAHQGVFFHQGQICVAASRLFVEESIYDEFVRRSVERAKKYILGNPLNSGINQGPQIDKEQHNKILGLIESGKKEGAKLECGGGRWGNKGFFVQPTVFSNVTDEMRIAKEEIFGPVQQIMKFKSMDDVIKRANNTTYGLAAGVFTKDLDKAITVSSALQAGMVWVNCYLAVPVQCPFGGFKMSGNGRELGEHGLYEYTELKTVAMQISQKNS
modifications: full-length

System: intracellular proteome of ENR+CD and ENR organoids
Assay: LC-MS/MS TMT proteomics of ENR+CD versus ENR organoids
Type: cell-based, C57BL/6 mice
Settings: for Average logFC / M1-1 Log2 Median Normalized / M1-2 Log2 Median Normalized / M2-1 Log2 Median Normalized / M2-2 Log2 Median Normalized: protein abundance, ENR+CD versus ENR organoids; for Average logFC: aggregate of the four sample pairs; for M1-1 Log2 Median Normalized: replicate M1-1; for M1-1 Log2 Median Normalized / M1-2 Log2 Median Normalized / M2-1 Log2 Median Normalized / M2-2 Log2 Median Normalized: log2 ratio; for M1-2 Log2 Median Normalized: replicate M1-2; for M2-1 Log2 Median Normalized: replicate M2-1; for M2-2 Log2 Median Normalized: replicate M2-2; for change: up = enriched in ENR+CD, down = enriched in ENR, FDR<0.05 and log fold change cut-off
Source text: Because PCs are highly secretory, protein-rich cells, Applicants sought to assess the total intracellular proteome between conditions through liquid chromatography mass spectrometry (LC-MS/MS)-based proteomics. Applicants quantified relative protein abundance across eight samples using isobaric mass tag labeling from four ENR and four ENR+CD samples (M1-1 through M2-2, first digit denotes biological donor, second digit denotes technical replicate) (FIG. 3A). Samples were processed and analyzed in a single 10-plex by LC-MS/MS (FIG. 9A).
To affirm the reproducibility of the associated proteins in the ENR+CD-enriched proteome, Applicants performed relative quantification within differentiation sets.
Mass spectrometry proteomics sample preparation, sequencing, and quantification. Organoid cell pellets were isolated from Matrigel with mechanical dissociation and washed (cold PBS 5X) to remove residual extracellular protein. Proteins were extracted from cell pellets with 8 M urea (Sigma), reduced with 5 mM DTT (Thermo Fisher Pierce) for 45 minutes, alkylated with 10 mM IAA (Sigma) for 45 minutes in the dark, and double digested with both Lysyl Endopeptidase “LysC” (Wako) and trypsin (Promega) overnight at RT. A small aliquot of cellular lysate was removed from each sample for protein quantification via the Pierce™ BCA Protein Assay Kit (Pierce). After proteolytic digestion, the samples were quenched using formic acid to a final concentration of 1.0% and subsequently desalted on 10 mg OASIS HLB solid phase columns (Waters).
The peptides were labeled with TMT-10 isobaric mass tag reagent according to manufacturer's instructions (ThermoFisher Scientific). The peptides were labeled at a 1:8 ratio of peptide to TMT reagent, followed by 1-hour incubation at RT with bench top shaking at 850 rpm. After incubation, a […] of labeled tryptic peptide was removed from each labeled condition, desalted with C18 stage tips, and analyzed via LC-MS/MS using a Thermo Fisher Q Exactive Plus Hybrid Mass Spectrometer (QE-Plus) coupled to a Thermo Fisher EASY-nLC 1000 liquid chromatograph to ensure isobaric label incorporation >95%. An additional 1.0 μg of labeled tryptic peptide was removed from each channel, mixed together, desalted on a C18 stage tip, and analyzed via LC-MS to ensure equal relative protein loads. During these quality control steps, the labeled peptides were stored, unquenched at −80° C.

Row | Molecule | Average logFC | M1-1 Log2 Median Normalized | M1-2 Log2 Median Normalized | M2-1 Log2 Median Normalized | M2-2 Log2 Median Normalized | change
1 | B1 | −1.165 | −1.572 | −0.967 | −0.8395 | −1.281 | down
2 | B2 | 1.151 | 0.817 | 1.152 | 1.1275 | 1.543 | up
3 | B3 | −1.193 | −0.813 | −0.849 | −1.3945 | −1.715 | down
4 | B4 | −1.329 | −1.241 | −1.721 | −1.8345 | −0.518 | down
